{"source": "paper PMC9765544", "about": "“Metabolic Mechanism and Physiological Role of Glycerol 3-Phosphate in Pseudomonas aeruginosa PAO1” (mBio, 2022)", "molecules": {"B1": {"name": "PA0562 (Pseudomonas aeruginosa PAO1) (protein)", "chain": "MPHPIDALISDCDGVLVDSEVIAERVMYEALSAYAPLEELQRLLEGTFGLTSRDILDRVEKHFGLRIPDSFNREVRQRSEEMVAQVQPIPGAREALLALDLPVAVASNSRRHSLERSLARAGLSELIGERLASADMVALPKPAPDVYLHAASLLGVAPERCLVVEDSSTGTRAALAAGMRVIGFVGAGHIPAGHAEVLRELGAIAIVEHMRELPETVARLRRTV"}}, "key": {"GlpR": {"biological_target": "T1, GlpR (Pseudomonas aeruginosa, UniProt Q51391)", "T1 construct": "recombinant from pETDuet-glpR in E. coli BL21(DE3), HisTrap HP purified", "T1 sequence (Q51391 1-251)": "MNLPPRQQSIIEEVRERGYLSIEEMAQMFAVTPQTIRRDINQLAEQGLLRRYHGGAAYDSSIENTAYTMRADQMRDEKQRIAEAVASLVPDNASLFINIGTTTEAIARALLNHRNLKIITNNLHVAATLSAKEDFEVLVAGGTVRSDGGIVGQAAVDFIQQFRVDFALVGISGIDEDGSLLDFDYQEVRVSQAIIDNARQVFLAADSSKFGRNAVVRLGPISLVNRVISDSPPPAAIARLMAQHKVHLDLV", "test": "EMSA, prevention of GlpR binding to glpFK and glpD promoter DNA", "conditions": "10 mM G3P (lithium salt), 500 nM GlpR, 3.5 nM DNA probe, pH 7.4, 30 °C; effector (inducer)"}, "O=P(O)(O)OC[C@H](O)CO": {"system": "O=P(O)(O)OC[C@H](O)CO", "test": "purified protein", "conditions": "5 mM MgCl2, 50 mM Tris-HCl pH 7.0, bis(cyclohexylammonium) salt"}, "[1]": {"substrate": "O=P(O)(O)OC[C@H](O)CO", "test": "released inorganic phosphate, Michaelis-Menten regression", "format": "biochemical, Pseudomonas aeruginosa", "conditions": "5 mM MgCl2, 50 mM Tris-HCl pH 7.0, bis(cyclohexylammonium) salt"}}}
{"molecule": "O=P(O)(O)OC[C@H](O)CO", "note": "[G3P]", "values": [{"measurement": "EMSA, prevention of GlpR binding to glpFK and glpD promoter DNA", "setting": "GlpR", "result": "G3P prevents GlpR binding to the glpFK (D) and glpD (E) promoter regions"}]}
{"molecule": "PA3172 (Pseudomonas aeruginosa PAO1)", "values": [{"measurement": "Km", "setting": "O=P(O)(O)OC[C@H](O)CO", "result": "5.634 ± 0.209", "unit": "mM"}]}
{"molecule": "B1", "values": [{"measurement": "Km", "setting": "[1]", "result": "8.937 ± 1.350", "unit": "mM"}]}
